Positions count from the first letter of the chain named. Names and notes keep the numbering of the source.
T1: IL-12 p40 C177S variant (human, UniProt P29460 23-328)
T1 sequence: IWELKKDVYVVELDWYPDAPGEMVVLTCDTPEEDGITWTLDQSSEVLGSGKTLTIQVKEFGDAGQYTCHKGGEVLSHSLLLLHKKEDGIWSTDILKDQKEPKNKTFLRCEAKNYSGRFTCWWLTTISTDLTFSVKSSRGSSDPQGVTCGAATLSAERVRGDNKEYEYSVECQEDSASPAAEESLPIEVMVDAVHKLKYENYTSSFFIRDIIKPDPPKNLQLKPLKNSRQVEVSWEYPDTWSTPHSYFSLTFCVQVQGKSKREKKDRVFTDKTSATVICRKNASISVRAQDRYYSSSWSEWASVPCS

T2: IL-12 p40 C177F variant (human, UniProt P29460 23-328)
T2 sequence: T1 sequence with S177F

T3: Recombinant mouse uPAR-Fc (R&D Systems, Cat. No. 531-PA-100) (mouse, UniProt P35456 24-297, limits assumed)
T3 construct: not shown: Fc of the bought fusion (captured with the human antibody capture kit); not described
T3 sequence (looked up): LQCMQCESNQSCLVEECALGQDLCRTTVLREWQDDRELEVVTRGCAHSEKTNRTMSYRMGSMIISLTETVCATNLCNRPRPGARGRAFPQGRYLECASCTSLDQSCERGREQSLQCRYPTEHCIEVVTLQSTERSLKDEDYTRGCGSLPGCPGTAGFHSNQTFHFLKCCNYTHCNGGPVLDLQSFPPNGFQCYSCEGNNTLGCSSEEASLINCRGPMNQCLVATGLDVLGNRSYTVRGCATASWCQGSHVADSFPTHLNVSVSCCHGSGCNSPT

B1: IL-12 p35 C74D variant (other)
chain: RNLPVATPDPGMFPCLHHSQNLLRAVSNMLQKARQTLEFYPCTSEEIDHEDITKDKTSTVEACLPLELTKNESDLNSRETSFITNGSCLASRKTSFMMALCLSSIYEDLKMYQVEFKTMNAKLLMDPKRQIFLDQNMLAVIDELMQALNFNSETVPQKSSLEEPDFYKTKIKLCILLHAFRIRAVTIDRVMSYLNAS
B2: IL-12 p35 C74K variant (other)
chain: B1 chain with D74K
B3: IL-12 p35 C74Y variant (other)
chain: B1 chain with D74Y
B4: IL-12 p35 C74W variant (other)
chain: B1 chain with D74W
B5: M1-H3/L4 (antibody, V domains shown)
VH: EVQLQQSGAEVKKPGATVKLSCTASGFNIKDEYINWVKQRPGQGLEWIGWIDPENGDTEYASKFQGRATITADTSTDTAYLELSSLRSEDTAVYYCTGGNYVGWFPYWGQGTLVTVSS
VL: QIVLTQSPATLSASPGERVTMSCSASSSVSYMHWYQQKPGTSPRRWLYDTSKLASGVPARFSGSGSGTDYTLTISSLEPEDFATYYCQQWSSNPPYTFGQGTKLEIKT
notes: also called humanized M1
B6: M1-H1/L4 (antibody, V domains shown)
VH: B5 VH with Q5V, L20I, Q43K, A68V
VL: B5 VL
notes: also called humanized M1
B7: M1-H3/L1 (antibody, V domains shown)
VH: B5 VH
VL: B5 VL with Q1E, A13L, V19A, M21L, L47I, Y70F, T84V
notes: also called humanized M1
B8: M43-Chimeric (antibody, V domains shown)
VH: QVQLQQSGAELARPGASVNLSCKASGYTFTSYGISWVKQRTGQGLEWIGEIYPRSGNTYYNEKFKGKATLTADKSSRTAYMELRSLTSEDSAVYFCAGKDYGSTYADYWGQGTTLTVSS
VL: QIVLTQSPAIMSASPGEKVTMTCSASSSVSSRYLHWYQQKSGASPKLWIYGTSNLASGVPARFSGSGSGTSYSLTINSVEAEDAATYYCQQYHSDPLTFGAGTKLELK
B9: M43-H1bm5/L4 (antibody, V domains shown)
VH: B8 VH with Q5V, L11V, R13K, S21N, K38R, A68V, A72T, S76T, S91T, F95Y
VL: QIVLTQSPATLSASPGERVTMTCSASSSVSSRYLHWYQQKSGASPRLWIYGTSNLASGVPARFSGSGPGTSYTLTISSVEPEDAATYYCQQYHSDPLTFGQGTKLELKT
notes: also called humanized M43
B10: M43-H4bm5/L4 (antibody, V domains shown)
VH: B8 VH with L11V, R13K, S21N, K38R, S76T, S91T
VL: B9 VL
notes: also called humanized M43
B11: Mouse cpIL-2:IL-2Ra (other)
chain: SSKSFQLEDAENFISNIRVTVVKLKGSDNTFECQFDDESATVVDFLRRWIAFCQSIISTSPQGGSSSTQQQQQHLEQLLMDLQELLSRMENYRNLKLPRMLTFKFYLPKQATELKDLQCLEDELGPLRHVLDLTQGSGGGSELCLYDPPEVPNATFKALSYKNGTILNCECKRGFRRLKELVYMRCLGNSWSSNCQCTSNSHDKSRKQVTAQLEHQKEQQTTTDMQKPTQSMHQENLTGHCREPPPWKHEDSKRIYHFVEGQSVHYECIPGYKALQRGPAISICKMKCGKTGWTQPQLTCVD
B12: M1-Chimeric (antibody, V domains shown)
VH: EVQLQQSGAELVRPGASVKLSCTASGFNIKDEYINWVKQRPEQGLEWIGWIDPENGDTEYASKFQGKATITADTSSNTAYLQLSSLTSEDTAVYYCTGGNYVGWFPYWGQGTLVTVSA
VL: QIVLTQSPAIMSASPGEKVTMTCSASSSVSYMHWYQQKSGTSPKRWLYDTSKLASGVPARFSGSGSGTSYSLTISSMEAEDAATYYCQQWSSNPPYTFGGGTKLEIK
B13: Mouse uPA-ATF:Mouse cpIL-2:IL-2Ra:His6 (other)
chain: GSVLGAPDESNCGCQNGGVCVSYKYFSRIRRCSCPRKFQGEHCEIDASKTCYHGNGDSYRGKANTDTKGRPCLAWNAPAVLQKPYNAHRPDAISLGLGKHNYCRNPDNQKRPWCYVQIGLRQFVQECMVHDCGGSGGSKSFQLEDAENFISNIRVTVVKLKGSDNTFECQFDDESATVVDFLRRWIAFCQSIISTSPQGGSSSTQQQQQHLEQLLMDLQELLSRMENYRNLKLPRMLTFKFYLPKQATELKDLQCLEDELGPLRHVLDLTQGSGGGSELCLYDPPEVPNATFKALSYKNGTILNCECKRGFRRLKELVYMRCLGNSWSSNCQCTSNSHDKSRKQVTAQLEHQKEQQTTTDMQKPTQSMHQENLTGHCREPPPWKHEDSKRIYHFVEGQSVHYECIPGYKALQRGPAISICKMKCGKTGWTQPQLTCVDHHHHHH
B14: M8-Chimeric (antibody, V domains shown)
VH: QIQLVQSGPELKKPGETVKISCKASGNTFTDYGMNWVKQSPGKGLKWMGWINTNTGEPTYADDFKGRFAFSLETSASTAYLQINNLKNEDMATYFCAHYSFDYWGQGTTLTVSS
VL: DIQMTQSPASLSVSVGQTVTITCRTSENIYSNLAWYQQKPGKSPQLLVYAATNLADGVPSRFSGSGSGTQYSLKINSLQSEDFGSYYCQHFWGTPWTFGGGTKLEIK
B15: M8-H3/L2B10 (antibody)
heavy: not shown
light: DIQMTQSPSSLSASVGDTVTITCRTSENIYSNLAWYQQKPGKSPQLLVYAATNLADGVPSRFSGSGSGTDYTLTISSLQPEDFGTYYCQHFWGTPWTFGGGTKVEIKTVAAPSVFIFPPSDEQLKSGTASVVCLLNNFYPREAKVQWKVDNALQSGNSQESVTEQDSKDSTYSLSSTLTLSKADYEKHKVYACEVTHQGLSSPVTKSFNRGEC
notes: also called humanized M8
B16: M8-H3/L2B5 (antibody)
heavy: not shown
light: B15 light with T18R
notes: also called humanized M8
B17: M8-H3/L2B2 (antibody, V domains shown)
VH: QIQLVQSGSELKKPGASVKISCKASGTTFTDYGMNWVKQSPGKGLKWMGWINTNTGEPTYAEDFKGRFVFSLDTSVSTAYLQISSLKAEDTATYFCAHYSFDYWGQGTLLTVSS
VL: DIQMTQSPSSLSASVGDTVTITCRTSENIYSNLAWYQQKPGKSPQLLVYAATNLADGVPSRFSGSGSGTQYTLKISSLQPEDFATYYCQHFWGTPWTFGGGTKVEIKT
notes: also called humanized M8

How the values were obtained:
IL-12 p40 C177S variant = molecular target: T1, IL-12 p40 C177S variant; experiment: BLI (Octet), p35 C74 variant against p40 C177S
IL-12 p40 C177F variant = molecular target: T2, IL-12 p40 C177F variant; experiment: BLI (Octet), p35 C74 variant against p40 C177F
[1] = molecular target: T4, histidine-tagged human uPAR (Sino#10925-H08H) (human, UniProt Q03405 23-303); experiment: BLI (Octet), antibody on anti-human Fc sensor, uPAR from 50 nM;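 further: antibodies captured at 10 µg/mL on anti-human Fc biosensors, with uPAR as analyte in a twofold dilution series from 50 nM downward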
T4 construct: also called uPAR-His

[2] = molecular target: IL-2/IL-15 receptor on primary mouse splenocytes (mouse); experiment: cell-based or functional assay
[3] = molecular target: T3, Recombinant mouse uPAR-Fc (R&D Systems, …); experiment: SPR (Biacore), mouse uPAR-Fc captured on anti-human antibody chip

Binder	Kd [1] [nM]	koff [1] [s⁻¹]	kon [1] [M⁻¹ s⁻¹]	other results
B1				Kd (IL-12 p40 C177S variant): 57.1 nM; koff (IL-12 p40 C177S variant): 0.001 s⁻¹; kon (IL-12 p40 C177S variant): 17600 M⁻¹ s⁻¹; Kd (IL-12 p40 C177F variant): 60.2 nM; koff (IL-12 p40 C177F variant): 0.000719 s⁻¹; kon (IL-12 p40 C177F variant): 11900 M⁻¹ s⁻¹
B2				Kd (IL-12 p40 C177S variant): 19.6 nM; koff (IL-12 p40 C177S variant): 0.000508 s⁻¹; kon (IL-12 p40 C177S variant): 25900 M⁻¹ s⁻¹; Kd (IL-12 p40 C177F variant): 18.4 nM; koff (IL-12 p40 C177F variant): 0.000295 s⁻¹; kon (IL-12 p40 C177F variant): 16000 M⁻¹ s⁻¹
B3				Kd (IL-12 p40 C177S variant): 23.2 nM; koff (IL-12 p40 C177S variant): 0.000411 s⁻¹; kon (IL-12 p40 C177S variant): 17700 M⁻¹ s⁻¹; Kd (IL-12 p40 C177F variant): 23.8 nM; koff (IL-12 p40 C177F variant): 0.000298 s⁻¹; kon (IL-12 p40 C177F variant): 12500 M⁻¹ s⁻¹
B4				Kd (IL-12 p40 C177S variant): 27 nM; koff (IL-12 p40 C177S variant): 0.000432 s⁻¹; kon (IL-12 p40 C177S variant): 16000 M⁻¹ s⁻¹; Kd (IL-12 p40 C177F variant): 25.4 nM; koff (IL-12 p40 C177F variant): 0.000291 s⁻¹; kon (IL-12 p40 C177F variant): 11500 M⁻¹ s⁻¹
B5	1.3	0.000893	686000	
B6	1.48	0.000986	665000	
B7	1.64	0.00111	677000	
B8	15.1	0.00606	402000	
B9	15.9	0.00658	415000	
B10	14.7	0.00666	454000	
B11				pSTAT5 EC50, mouse NK cells [2]: 19 nM; pSTAT5 EC50, mouse Tregs [2]: 22 nM; pSTAT5 EC50, mouse memory CD8 T cells [2]: 23 nM
B12	1.11	0.000701	629000	
B13				Kd [3]: 0.14 nM; koff [3]: 0.0002 s⁻¹; kon [3]: 1.4e+06 M⁻¹ s⁻¹; pSTAT5 EC50, mouse NK cells [2]: 35 nM; pSTAT5 EC50, mouse Tregs [2]: 22 nM; pSTAT5 EC50, mouse memory CD8 T cells [2]: 38 nM
B14	1.79	0.00049	273000	
B15	2.35	0.000477	203000	
B16	1.65	0.000351	213000	
B17	1.74	0.000427	246000	

Reference: patent US20220340678A1 (MURAL ONCOLOGY, published 2022)
